Data on seven molecules can be found in patent US20100203055A1, “HAIR REGROWTH PROMOTER” (priority 2007, published 2010).

Assay [1] relates to human dermal papilla cells (HFDP). The assay can be described thus: Effect of FGF18 on gene expression of hair follicle growth promoting factors in dermal papilla cells. The settings on record: dermal papilla cells cultured 24 hr with FGF18, then medium deprived of FGF18, versus continued FGF18-containing medium. In kind it is cell-based. The protocol:
Cultured human dermal papilla cells (HFDP; from adult human scalp; Toyobo) were subcultured in HFDP growth medium (20% fetal bovine serum-containing basal medium for dermal papilla cell; Toyobo) and used in experiments within two passages. The cells were treated with trypsin and seeded in collagen-coated dishes (Sumilon; 6 cm in diameter) at 4×10^5 cells/dish. The cells were maintained at 37° C. in HFDP medium. On the next day, the medium was exchanged for HEK medium (EpiLife™, 0.06 mM CaCl2, 10 μg/ml insulin, 0.1 ng/ml hEGF, 0.5 μg/ml hydrocortisone, 0.4% BPE), and then FGF18 was added to the medium. After the cells were cultured for 24 hr, the medium was exchanged for FGF18 free medium in the test sample group (“-FGF18”). The control group (“Control”) was cultured continuously in the FGF18-containing medium. Subsequently, the cells were harvested and the mRNA was extracted and purified. The expression levels of mRNA from VEGF (known as a hair follicle growth promoting factor) and noggin (known as a hair growth inhibiting factor) contained in the resultant mRNA were analyzed.

In a further assay the test system is hair follicle growth. The assay can be described thus: Hair growth inhibiting effect by continuous administration of FGF18 in anagen phase-induced C3H/HeN mice. In kind it is in vivo, mouse. The protocol:
In order to examine the effect of FGF18 in vivo on hair follicle growth, FGF18 protein dissolved in phosphate buffered physiological saline (PBS) was administered to hair follicle anagen phase-induced mice. Briefly, dorsal hair of 50 day-old C3H/HeN male mice in telogen phase was depilated gently with fingers to thereby induce the start of hair follicle anagen phase. Then, FGF18 solution was injected into the dorsal skin subcutaneously from the vicinity of the tail (1 μg of FGF18 per mouse). The mice were maintained on a diet and water ad libitum. Starting from this day, FGF18 solution was injected subcutaneously into the dorsal skin every day at about the same time for consecutive 8 days. The control group received injection of PBS instead of FGF18. Nine days after the initial injection, the mice were euthanized under anesthesia. Full thickness skin samples were excised from the dorsal part and embedded in paraffin. The thus embedded skin samples were sliced into 4 μm thick sections with a microtome, stained with hematoxylin and observed under microscope.

The next assay concerns hair follicles. The settings on record: single administration to mouse skin in telogen phase; Non-Patent Document 19 and Patent Document 2; cited from earlier work.
A further assay concerns FGFR3c. The assay can be described thus: Inhibition of FGF18-stimulated DNA synthesis (cell growth) in FGFR3c/BaF3 cells by FGF18 partial peptides. It is filed as cell-based, mouse. The source says:
(§1) According to teachings disclosed in literature, the FGF receptor genes FGFR1c, FGFR2c, FGFR3c and FGFR4 were respectively introduced by means of genetic engineering into Ba/F3 cell strain (obtained from RIKEN BRC) which is mouse IL-3-dependent proB cell to thereby prepare cells on whose surface FGFR was compulsively expressed (Ornitz, D M., Xu, J., Colvin, J S., McEwen, D G, MacArthur, C A., Coulier, E, Gao, G. and Goldfarb, M., 1996. Receptor specificity of the fibroblast growth factor family. J. Biol. Chem. 271(25):15292-15297; Yoneda, A., Asada, M., Oda, Y, Suzuki, M. and Imamura, T., 2000. Engineering of an FGF-proteoglycan fusion protein with heparin-independent, mitogenic activity. Nat. Biotec. 18(6):641-644).
(§2) Using these cells, the antagonist activity of test samples [whether or not test samples inhibit the DNA synthesis of FGF18-stimulated cell (this is taken as 100%)] was examined while stimulating each receptor with 30 ng/ml FGF18, in the co-presence of each partial peptide of FGF18 at 1 μg/ml (FIG. 3A) or at 100 ng/ml (FIG. 3B). Briefly, an activity that inhibits the cell growth stimulating effect of FGF18 was analyzed. Correspondence between individual columns and test samples is as described below.

The next assay has as its target T1, FGFR4 (Homo sapiens, UniProt P22455).
T1 construct: expressed in transfected cells; host or cells: Ba/F3 (mouse IL-3-dependent proB cell); R4/Ba/F3 cells under G-418
The assay can be described thus: Inhibition of FGF18-stimulated DNA synthesis (cell growth) in FGFR4/BaF3 cells by FGF18 partial peptides. It is filed as cell-based, mouse. The note with it: test sample 1 μg/ml, 30 ng/ml FGF18, FIG. 3A.
Source text: as §1, §2

[2] abbreviates: test sample 100 ng/ml, 30 ng/ml FGF18, FIG. 3B.
The mark [3] stands for this setting: test sample 1 μg/ml, 30 ng/ml FGF18, FIG. 3A.

Entries after “also recorded” stand apart in the source; their conditions may differ.

T1 sequence (P22455 22-802, species assumed): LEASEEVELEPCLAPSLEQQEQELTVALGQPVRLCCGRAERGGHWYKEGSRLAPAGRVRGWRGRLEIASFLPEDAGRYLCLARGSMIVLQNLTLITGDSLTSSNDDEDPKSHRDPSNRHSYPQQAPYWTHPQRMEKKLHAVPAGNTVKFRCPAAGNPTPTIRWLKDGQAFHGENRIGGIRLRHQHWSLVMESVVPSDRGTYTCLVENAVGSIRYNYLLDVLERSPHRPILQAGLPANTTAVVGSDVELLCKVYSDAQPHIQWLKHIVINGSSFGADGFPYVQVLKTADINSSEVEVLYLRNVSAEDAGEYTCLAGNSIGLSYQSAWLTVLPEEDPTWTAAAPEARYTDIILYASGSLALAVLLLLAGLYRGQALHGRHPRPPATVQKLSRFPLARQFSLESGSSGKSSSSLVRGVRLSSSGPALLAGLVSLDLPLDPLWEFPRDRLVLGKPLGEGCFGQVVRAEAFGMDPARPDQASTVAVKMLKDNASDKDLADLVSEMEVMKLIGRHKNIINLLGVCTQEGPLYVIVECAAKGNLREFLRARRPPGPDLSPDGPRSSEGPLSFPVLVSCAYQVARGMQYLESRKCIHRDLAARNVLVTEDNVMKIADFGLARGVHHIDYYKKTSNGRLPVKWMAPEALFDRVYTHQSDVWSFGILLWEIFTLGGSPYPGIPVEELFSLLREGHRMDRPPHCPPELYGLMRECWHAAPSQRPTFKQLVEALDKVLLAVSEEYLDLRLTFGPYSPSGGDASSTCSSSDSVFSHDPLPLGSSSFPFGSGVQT

B1: FGF18: fibroblast growth factor 18 protein; secreted polypeptide of 181 amino acids; commercial FGF18 (PeproTech) used (protein)
chain: EENVDFRIHVENQTRARDDVSRKQLRLYQLYSRTSGKHIQVLGRRISARGEDGDKYAQLLVETDTFGSQVRIKGKETEFYLCMNRKGKLVGKPDGTSKECVFIEKVLENNYTALMSAKYSGWYVGFTKKGRPRKGPKTRENQQDVHFMKRYPKGQPELQKPFKYTTVTKRSRRIRPTHPA
In the case of B1, in assay [1], the “expression level of VEGF mRNA” value amounted to 4.8 fold and the “expression level of noggin mRNA” value is 3.5 fold. In addition, the “hair growth / hair follicle growth” value with hair follicle growth (1 μg FGF18 per mouse subcutaneously once a day for 8 days after depilation, observed at day 9, versus PBS) was “hair growth is strongly inhibited; also recorded: hair growth was markedly inhibited”. For the same molecule, the “growth of hair follicles after stopping FGF18 administration” value in the assay on hair follicle growth (continuous administration under the same conditions, then stopped and mice raised thereafter) is recorded as “growth of hair follicles occurred”. In addition, the “hair regrowth after single administration” value with hair follicles was “induces hair regrowth”.

B2: d16: partial peptide of mouse FGF18, 16 amino acids deleted from N-terminus; SEQ ID NO: 17 (protein)
chain: MARDDVSRKQLRLYQLYSRTSGKHIQVLGRRISARGEDGDKYAQLLVETDTFGSQVRIKGKETEFYLCMNRKGKLVGKPDGTSKECVFIEKVLENNYTALMSAKYSGWYVGFTKKGRPRKGPKTRENQQDVHFMKRYPKGQAELQKPFKYTTVTKRSRRIRPTHPG
modifications: truncation mutant polypeptide of mouse FGF18(d16)
On to B2, for which the “inhibition of the activity of FGF18 on FGFR3c/BaF3 cells” value (“inhibition … on FGFR3c/BaF3 cells” for short) in the assay with FGFR3c (setting [2]) and with FGFR3c (setting [3]) was “strongly inhibit” in each case.

B3: d77: partial peptide of mouse FGF18, 77 amino acids deleted from N-terminus; SEQ ID NO: 23 (protein)
chain: MTEFYLCMNRKGKLVGKPDGTSKECVFIEKVLENNYTALMSAKYSGWYVGFTKKGRPRKGPKTRENQQDVHFMKRYPKGQAELQKPFKYTTVTKRSRRIRPTHPG
modifications: truncation mutant polypeptide of mouse FGF18(d77)
Take B3: in the assay on FGFR3c (setting [3]), the “inhibition … on FGFR3c/BaF3 cells” value is reported as “strongly inhibit”. The “inhibition of the activity of FGF18 on FGFR4/BaF3 cells” value (“inhibition … on FGFR4/BaF3 cells” below) in the assay with FGFR4 is on record as “strongly inhibit”.

B4: d95: partial peptide of mouse FGF18, 95 amino acids deleted from N-terminus; SEQ ID NO: 24 (protein)
chain: MGTSKECVFIEKVLENNYTALMSAKYSGWYVGFTKKGRPRKGPKTRENQQDVHFMKRYPKGQAELQKPFKYTTVTKRSRRIRPTHPG
modifications: truncation mutant polypeptide of mouse FGF18(d95)
In the case of B4, the “inhibition … on FGFR3c/BaF3 cells” value in the assay with FGFR3c (setting [2]) and in the assay on FGFR3c (setting [3]) was “strongly inhibit” each time. For the same molecule, the “inhibition … on FGFR4/BaF3 cells” value with FGFR4 is reported as “strongly inhibit”.

B5: d37: partial peptide of mouse FGF18, 37 amino acids deleted from N-terminus; SEQ ID NO: 20 (protein)
chain: MKHIQVLGRRISARGEDGDKYAQLLVETDTFGSQVRIKGKETEFYLCMNRKGKLVGKPDGTSKECVFIEKVLENNYTALMSAKYSGWYVGFTKKGRPRKGPKTRENQQDVHFMKRYPKGQAELQKPFKYTTVTKRSRRIRPTHPG
modifications: truncation mutant polypeptide of mouse FGF18(d37)
On to B5, for which, in the assay on FGFR3c (setting [3]), the “inhibition … on FGFR3c/BaF3 cells” value was “strongly inhibit”.

B6: d22: partial peptide of mouse FGF18, 22 amino acids deleted from N-terminus; SEQ ID NO: 19 (protein)
chain: MRKQLRLYQLYSRTSGKHIQVLGRRISARGEDGDKYAQLLVETDTFGSQVRIKGKETEFYLCMNRKGKLVGKPDGTSKECVFIEKVLENNYTALMSAKYSGWYVGFTKKGRPRKGPKTRENQQDVHFMKRYPKGQAELQKPFKYTTVTKRSRRIRPTHPG
modifications: truncation mutant polypeptide of mouse FGF18(d22)
On to B6, for which the “inhibition … on FGFR3c/BaF3 cells” value in the assay with FGFR3c (setting [3]) is recorded as “strongly inhibit”. Moreover, the “inhibition … on FGFR4/BaF3 cells” value with FGFR4 was “strongly inhibit”.

B7: d48: partial peptide of mouse FGF18, 48 amino acids deleted from N-terminus; SEQ ID NO: 21 (protein)
chain: MARGEDGDKYAQLLVETDTFGSQVRIKGKETEFYLCMNRKGKLVGKPDGTSKECVFIEKVLENNYTALMSAKYSGWYVGFTKKGRPRKGPKTRENQQDVHFMKRYPKGQAELQKPFKYTTVTKRSRRIRPTHPG
modifications: truncation mutant polypeptide of mouse FGF18(d48)
Regarding B7, the “inhibition … on FGFR3c/BaF3 cells” value in the assay on FGFR3c (setting [3]) was “strongly inhibit”. Besides, the “inhibition … on FGFR4/BaF3 cells” value with FGFR4 was “strongly inhibit”.
